Target: the molecule itself
Assay: not described (homodimerisation stated in Example 7)

B1: STAT5A 1*7 (other)
chain: MAGWIQAQQLQGDALRQMQVLYGQHFPIEVRHYLAQWIESQPWDAIDLDNPQDRGQATQLLEGLVQELQKKAEHQVGEDGFLLKIKLGHYATQLQNTYDRCPMELVRCIRHILYNEQRLVREANNCSSPAGVLVDAMSQKHLQINQRFEGLRLITQDTENELKKLQQTQEYFIIQYQESLRIQAQFAQLGQLNPQERMSRETALQQKQVSLETWLQREAQTLQQYRVELAEKHQKTLQLLRKQQTIILDDELIQWKRRQQLAGNGGPPEGSLDVLQSWCEKLAEIIWQNRQQIRRAEHLCQQLPIPGPVEEMLAEVNATITDIISALVTSTFIIEKQPPQVLKTQTKFAATVRLLVGGKLNVHMNPPQVKATIISEQQAKSLLKNENTRNECSGEILNNCCVMEYHQATGTLSAHFRNMSLKRIKRADRRGAESVTEEKFTVLFESQFSVGSNELVFQVKTLSLPVVVIVHGSQDHNATATVLWDNAFAEPGRVPFAVPDKVLWPQLCEALNMKFKAEVQSNRGLTKENLVFLAQKLFNISSNHLEDYNSMSVSWSQFNRENLPGWNYTFWQWFDGVMEVLKKHHKPHWNDGAILGFVNKQQAHDLLINKPDGTFLLRFSDSEIGGITIAWKFDSPDRNLWNLKPFTTRDFSIRSLADRLGDLNYLIYVFPDRPKDEVFAKYYTPVLAKAVDGYVKPQIKQVVPEFVNAFTDAGASATYMDQAPSPVVCPQPHYNMYPPNPDPVLDQDGEFDLDESMDVARHVEELLRRPMDSLDARLSPPAGLFTSARSSLS
notes: Expressed from the retrovirus vector GCsam-IRES-EGFP; also called STAT5 1*7; active STAT5 variant
  binding result: binds

From US20060177932A1 (published 2006)
